Laboratory results reported in patent US20230391893A1 (published 2023).

Target: dICB-huHF
Test: flow cytometry; LLC1 cells

Kd: 32.3 nM
B1: LLC1 (receptor)
chain: TIDTKRNISAEEGGSVILQCHFSSDTAEVTQVDWKQQDQLLAIYSVDLGWHVASVFSDRVVPGPSLGLTFQSLTMNDTGEYFCTYHTYPGGIYKGRIFLKVQESSDDRNGLAQFQTAPLG
